Results taken from patent publication US20260200999A1, “SYNTHETIC TRANSCRIPTION FACTORS” (ETH ZURICH, priority 2022, published 2026).

B1: SEQ ID NO: 51: negative control promoter comprising 5 scrambled DNA binding sites spaced by 10 bp (nucleic acid)
DNA: ATTCTACCGTCTCGGGCCATTAAAGGCATATGATTCTACCGTCTCGGGCCATTAAAGGCATATGATTCTACCGTCTCGGGCCATTAAAGGCATATGATTCTACCGTCTCGGGCCATTAAAGGCATATGATTCTACCGTCTCGGGCCATTA
B2: codon optimized MTF construct: DNA construct encoding MTF with codons changed to the most common ones in humans (nucleic acid)
DNA: ATGTTCGGCGTGAAGTGCCACAACACCGACAGCGAGCCCCTGAAGAACGAGGACCTGCTGAAGAACCTGCTGACCATGGGCGTGGACATCGACATGGCCCGCAAGCGCCAGCCCGGCGTGTTCCACCGCATGATCACCAACGAGCAGGACCTGAAGATGTTCCTGCTGAGCAAGGGCGCCAGCAAGGAGGTGATCGCCAGCATCATCAGCCGCTACCCCCGCGCCATCACCCGCACCCCCGAGAACCTGAGCAAGCGCTGGGACCTGTGGCGCAAGATCGTGACCAGCGACCTGGAGATCGTGAACATCCTGGAGCGCAGCCCCGAGAGCTTCTTCCGCAGCAACAACAACCTGAACCTGGAGAACAACATCAAGTTCCTGTATAGCGTGGGCCTGACCCGCAAGTGCCTGTGCCGCCTGCTGACCAACGCCCCCCGCACCTTCAGCAACAGCCTGGACCTGAACAAGCAGATGGTGGAGTTCCTGCAGGCCGCCGGCCTGAGCCTGGGCCACAACGACCCCGCCGACTTCGTGCGCAAGATCATCTTCAAGAACCCCTTCATCCTGATCCAGAGCACCAAGCGCGTGAAGGCCAACATCGAGTTCCTGCGCAGCACCTTCAACCTGAACAGCGAGGAGCTGCTGGTGCTGATCTGCGGCCCCGGCGCCGAGATCCTGGACCTGAGCAACGACTACGCCCGCCGCAGCTACGCCAACATCAAGGAGAAGCTGTTCAGCCTGGGCTGCACCGAGGAGGAGGTGCAGAAGTTCGTGCTGAGCTACCCCGACGTGATCTTCCTGGCCGAGAAGAAGTTCAACGACAAGATCGACTGCCTGATGGAGGAGAACATCAGCATCAGCCAGATCATCGAGAACCCCCGCGTGCTGGACAGCAGCATCAGCACCCTGAAGAGCCGCATCAAGGAGCTGGTGAACGCCGGCTGCAACCTGAGCACCCTGAACATCACCCTGCTGAGCTGGAGCAAGAAGCGCTACGAGGCCAAGCTGAAGAAGCTGAGCCGCTTCGCCCAGGCCGGCGAGGGCACCCTGAGCGAGGCCCTGCTGCAGCTGCAGTTCGACGACGAGGACCTGGGCGCCCTGCTGGGCAACAGCACCGACCCCGCCGTGTTCACCGACCTGGCCAGCGTGGACAACAGCGAGTTCCAGCAGCTGCTGAACCAGGGCATCCCCGTGGCCCCCCACACCACCGAGCCCATGCTGATGGAGTACCCCGAGGCCATCACCCGCCTGGTGACCGGAGCACAAAGACCCCCTGATCCTGCGCCAGCACCTCTTGGAGCACCTGGCCTGCCCAACGGCCTGCTGAGCGGCGACGAGGACTTCAGCAGCATCGCCGACATGGACTTCAGCGCCCTGCTGAGCCAGATCAGCAGC

Tests used:
Type in all cases: cell-based, human
[1] = tested on: Response Element-driven mCerulean reporter (MTERF1 binding sites, SEQ ID NO: 42); experiment: mCerulean reporter co-transfection with HumTAP constructs in HEK293 cells (flow cytometry)
Excerpt: To construct a promoter with Response Elements/MTERF1 binding sites driving the gene of interest, the inventors placed MTERF1 binding sites (SEQ ID NO: 42) upstream a minimal TATA box (SEQ ID NO: 103). An mCerulean fluorescent reporter representing the gene of interest (Gol) was placed downstream of the TATA box. Each of these is referred to as a reporter construct. Five different reporter constructs were made comprising respectively 3, 5, 7, 9, and 11 MTERF1 binding sites 6 base pairs apart upstream of the TATA box (FIG. 1A; SEQ ID NO: 41, 44, 45, 46 and 47, respectively). They were co-transfected with the MTF construct into Hela cells. […] Using flow cytometry, relative mCerulean levels were measured and calculated by normalization to the transfection control in Hela cells (FIG. 1C). […] Next, reporter plasmids with varying spacer lengths (0, 6 bp and 10 bp; SEQ ID NO: 48, 44 and 49, respectively) (FIG. 1F) between a fixed number of REs (i.e. 5 REs/MTERF1 binding sites) were transfected with the MTF construct. […] This was confirmed using flow cytometry (FIG. 1H). […]
With the goal to engineer stronger and possibly shorter HumTAPs, the inventors fused the MTERF158-399 peptide (SEQ ID NO: 1) to a variety of transactivation domains and transfected HEK293 cells with those constructs and the reporter construct comprising 5×RE/MTERF1 binding sites without a spacer between them (SEQ ID NO: 48).
First, MTERF158-399 (SEQ ID NO: 1) was fused with different subsequences of RelA. RelA361-551 (SEQ ID NO: 27) corresponds to the sequence used in the construction of the bacterial-derived synthetic TF PIT2 [19], while RelA342-551 (SEQ ID NO: 29) contains all annotated transactivation domains according to domain annotation under Uniprot Q04206 (https://www.uniprot.org/uniprotkb/Q04206/entry). […] We also fused MTERF158-399 (SEQ ID NO: 1) to a set of transactivation domains previously found to be strong activators with a small genetic footprint (FIG. 4B).
To further decrease the DNA footprint of a HumTAP, the inventors investigated to what degree the DNA binding domain may be reduced. To this end, the inventors created 3 versions of MTERF1 subsequences fused to RelA430-551 (SEQ ID NO: 3). MTERF173-399 (SEQ ID NO: 7), MTERF1104-399 (SEQ ID NO: 9), and MTERF1135-399 (SEQ ID NO: 11) are subunits of MTERF1 without its mitochondrial transfer peptide (MTERF11-57; SEQ ID NO: 37) that either lack only the first […] N-terminal amino acids (MTERF58-72; SEQ ID NO: 39) or additionally, also lack the first (MTERF173-98; SEQ ID NO: 104) or both the first and second (MTERF1104-134; SEQ ID NO: 106) mterf motifs (FIG. 5A). The removal of N-terminal domains reduces the genetic footprint of a HumTAP (FIG. 5B). These constructs were co-transfected into HEK293 cells with the reporter construct containing 5×RE without a spacer in its promoter (SEQ ID NO: 48).
In addition to RelA430-551 (termed “v1”), the inventors tested three alternative subsequences: v2) RelA342-551 (SEQ ID NO: 29), which contains all transactivation domains as annotated on UniProt Q04206; v3) RelA361-551 (SEQ ID NO: 27), which is identical to the peptide used in the construction of PIT2 [2]; and v4) RelA521-551 (SEQ ID NO: 31), which constitutes only the transactivation domain 1 (TA1). The protein domains WW (SEQ ID NO: 21), KRAB of ZNF473 (SEQ ID NO: 23), Nuc-rec-co-Act (SEQ ID NO: 25), LMSTEN (SEQ ID NO: 19), and FoxoTAD (SEQ ID NO: 17) were recently identified as strong transactivators. To assess their functionality in the HumTAP context, the inventors created fusion proteins between each of them and MTERF158-399 (SEQ ID NO: 1) (FIG. 9A).
Upon co-transfection of HEK293 cells with plasmids encoding pEF1a-driven expression of the fusion HumTAPs, a Response Element-driven mCerulean reporter protein, and a mCherry transfection control, all peptides derived from RelA except TA1 mediated high levels of reporter gene expression. […]

[2] = tested on: reporter construct with MTERF1 binding sites (SEQ ID NO: 42) upstream a minimal TATA box driving mCerulean; experiment: mCerulean reporter co-transfection with MTF construct in Hela cells (microscopy, flow cytometry)
Excerpt: The inventors engineered an exemplary “Human-derived transcriptional activator protein” (HumTAP) transactivation system by engineering a HumTAP transactivator and a promoter comprising the Response Elements/MTERF1 binding sites that is operably linked to a gene of interest. A prototype HumTAP protein was made by fusing a peptide consisting of amino acids 58 through 399 of the human MTERF1 gene (MTERF158-399 (SEQ ID NO: 1), Uniprot Q99551) to a peptide consisting of amino acids 430 through 551 of the RELA protein (RelA430-551 (SEQ ID NO: 3), Uniprot Q04206). This fusion is henceforth referred to as MTERF158-399::RelA430-551 (or “MTF”; SEQ ID NO: 100). A DNA construct was made with a strong EF1A promoter driving a constitutive expression of MTF (SEQ ID NO: 101) in human cells (“MTF construct”).
To construct a promoter with Response Elements/MTERF1 binding sites driving the gene of interest, the inventors placed MTERF1 binding sites (SEQ ID NO: 42) upstream a minimal TATA box (SEQ ID NO: 103). An mCerulean fluorescent reporter representing the gene of interest (Gol) was placed downstream of the TATA box. Each of these is referred to as a reporter construct. […] Using flow cytometry, relative mCerulean levels were measured and calculated by normalization to the transfection control in Hela cells (FIG. 1C). […]

[3] = tested on: Response Element-driven mCerulean reporter; experiment: Dose dependency of mCerulean reporter expression on transfected MTF construct amount, HEK293; details: HEK293, 24-well plates, 100 ng reporter construct, Hill equation, Hill coefficient 1
Procedure: By transfecting different amounts of the codon optimized MTF construct into HEK293 cells the inventors established a dose dependency of mCerulean reporter (Gol) expression on the expression levels of MTF (FIG. 3). HEK293 cells in 24-well plates were transfected with 0.75, 3, 6, 12, 24, 48, 96, 192, and 384 ng of MTF construct, 100 ng of reporter construct, and 50 ng of constitutive mCherry transfection control construct. Two days after transfection, the cells were analyzed using flow cytometry. The dose-response curve was modeled as a Hill equation assuming a Hill coefficient of 1.

Molecule	mCerulean reporter (Gol) expression ([1]; HEK293 cells co-transfected with MTF construct, microscopy and flow cytometry)	mCerulean reporter (Gol) expression ([2]; Hela cells co-transfected with MTF construct, microscopy and flow cytometry)	EC10 of transfected MTF construct ([3]; two days after transfection) [ng]	EC50 of transfected MTF construct ([3]; two days after transfection) [ng]	theoretical EC90 of transfected MTF construct ([3]; slight drop at higher amounts) [ng]	effect of codon optimization on reporter fluorescence levels ([1]; HEK cells)	increase of reporter gene expression by codon optimization ([2]; Hela cells, 5xRE 6 bp spacer reporter (SEQ ID NO: 44), versus naturally used codons)
B1	showed the same behavior	did not lead to mCerulean expression	–	–	–	–	–
B2	–	–	1.25	11.24	101	no significant effect	ca. 3 fold
